# From paper PMC9482650, “Quantitative fragmentomics allow affinity mapping of interactomes” (Nature Communications, 2022)
# Tests used:
# Assay in all cases: holdup assay
# Set-up in all cases: key: below the threshold = too weak to quantify, mostly under pKd 3.1 to 4
# [1] = target: GRIP2_7, Q9C0E4
# [2] = target: T1, MPDZ_12, O75970
# T1 sequence (O75970 1857-1958, limits assumed, looked up): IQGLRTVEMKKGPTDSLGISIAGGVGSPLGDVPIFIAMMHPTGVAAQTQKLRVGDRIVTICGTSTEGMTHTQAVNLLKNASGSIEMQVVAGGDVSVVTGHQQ
# [3] = target: T2, PDZD2_2, O15018
# T2 sequence (O15018 329-429, limits assumed, looked up): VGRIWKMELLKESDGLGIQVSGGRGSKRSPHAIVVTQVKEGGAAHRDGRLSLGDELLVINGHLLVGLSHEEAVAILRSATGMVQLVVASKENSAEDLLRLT
# [4] = target: DLG1_1, Q12959
# [5] = target: GRIP2_4, Q9C0E4
# [6] = target: T3, SNTG1, Q9NSN8
# T3 sequence (Q9NSN8 52-150, limits assumed, looked up): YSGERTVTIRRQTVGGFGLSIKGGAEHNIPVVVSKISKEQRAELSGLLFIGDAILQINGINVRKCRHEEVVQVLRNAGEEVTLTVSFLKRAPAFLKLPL
# [7] = target: NHERF4_4, Q86UT5
# [8] = target: MAST2, Q6P0Q8
# [9] = target: LIMK2, P53671
# [10] = target: SCRIB_2, Q14160
# [11] = target: T4, LIN7C, Q9NUP9
# T4 sequence (Q9NUP9 88-185, limits assumed, looked up): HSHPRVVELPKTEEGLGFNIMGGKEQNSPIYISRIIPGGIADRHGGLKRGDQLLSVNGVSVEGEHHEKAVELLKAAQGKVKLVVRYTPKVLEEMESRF
# [12] = target: DLG4_1, P78352
# [13] = target: T5, APBA1_1, Q02410
# T5 sequence (Q02410 651-752, limits assumed, looked up): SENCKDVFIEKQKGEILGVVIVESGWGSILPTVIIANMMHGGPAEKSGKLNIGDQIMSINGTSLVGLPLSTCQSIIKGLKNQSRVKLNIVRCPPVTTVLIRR
# [14] = target: T6, SNTG2, Q9NY99
# T6 sequence (Q9NY99 68-166, limits assumed, looked up): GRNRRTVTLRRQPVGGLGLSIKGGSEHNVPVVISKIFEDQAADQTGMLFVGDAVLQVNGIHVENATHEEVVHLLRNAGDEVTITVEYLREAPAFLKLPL
# [15] = target: T7, GRIP1_5, Q9Y3R0
# T7 sequence (Q9Y3R0 568-668, limits assumed, looked up): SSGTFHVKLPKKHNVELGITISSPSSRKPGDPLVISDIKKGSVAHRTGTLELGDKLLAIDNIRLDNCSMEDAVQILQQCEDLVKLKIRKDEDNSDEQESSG
# [16] = target: Inadl_10, Q8NI35
# [17] = target: T8, LNX2_3, Q8N448
# T8 sequence (Q8N448 463-564, limits assumed, looked up): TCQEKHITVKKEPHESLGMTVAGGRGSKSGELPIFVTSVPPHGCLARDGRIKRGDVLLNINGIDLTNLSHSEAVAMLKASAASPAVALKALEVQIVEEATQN
# [18] = target: GORASP2, Q9H8Y8
# [19] = target: Inadl_8, Q8NI35
# [20] = target: GIPC2, Q8TF65
# [21] = target: T9, APBA1_2, Q02410
# T9 sequence (Q02410 742-832, limits assumed, looked up): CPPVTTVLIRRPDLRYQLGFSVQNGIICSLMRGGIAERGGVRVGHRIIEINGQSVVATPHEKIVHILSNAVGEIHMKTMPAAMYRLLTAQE
# [22] = target: PTPN3, P26045
# [23] = target: T10, DVL3, Q92997
# T10 sequence (Q92997 244-331, limits assumed, looked up): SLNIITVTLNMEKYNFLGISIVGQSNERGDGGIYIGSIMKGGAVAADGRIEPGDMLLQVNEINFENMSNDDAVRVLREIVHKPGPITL
# [24] = target: IL16_3, Q14005
# [25] = target: T11, NHERF3_4, Q5T2W1
# T11 sequence (Q5T2W1 373-468, limits assumed, looked up): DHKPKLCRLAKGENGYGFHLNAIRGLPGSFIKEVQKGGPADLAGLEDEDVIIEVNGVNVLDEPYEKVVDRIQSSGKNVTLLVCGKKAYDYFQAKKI
# [26] = target: FRMPD2_1, Q68DX3
# [27] = target: DLG4_3, P78352
# [28] = plain residues with an end cap or a label only (N-terminal biotin on a linker: ado-ado)
# [29] = modified: phospho on T at position -2 from the C-terminal residue
# Sequence of GRIP2_7, Q9C0E4 (Q9C0E4 934-1023): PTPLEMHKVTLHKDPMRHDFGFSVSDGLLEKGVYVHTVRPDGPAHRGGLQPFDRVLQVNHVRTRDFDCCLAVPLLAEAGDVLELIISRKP
# Sequence of DLG4_1, P78352 (P78352 62-152): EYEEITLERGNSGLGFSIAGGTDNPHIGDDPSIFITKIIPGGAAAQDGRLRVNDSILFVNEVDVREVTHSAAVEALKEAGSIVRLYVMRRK
# Sequence of IL16_3, Q14005 (Q14005 1107-1207): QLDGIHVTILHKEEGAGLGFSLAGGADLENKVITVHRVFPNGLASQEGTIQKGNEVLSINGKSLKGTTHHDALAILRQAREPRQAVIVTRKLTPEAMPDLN
# Sequence of NHERF4_4, Q86UT5 (Q86UT5 464-550): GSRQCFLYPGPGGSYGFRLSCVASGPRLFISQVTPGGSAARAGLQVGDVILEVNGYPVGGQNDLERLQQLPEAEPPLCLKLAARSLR
# Sequence of PTPN3, P26045 (P26045 505-587): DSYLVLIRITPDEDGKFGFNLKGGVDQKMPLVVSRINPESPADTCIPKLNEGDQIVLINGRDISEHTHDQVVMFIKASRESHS
# Sequence of Inadl_10, Q8NI35 (Q8NI35 1673-1763): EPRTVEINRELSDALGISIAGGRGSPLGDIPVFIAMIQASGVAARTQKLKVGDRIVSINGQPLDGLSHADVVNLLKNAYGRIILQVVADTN
# Sequence of SCRIB_2, Q14160 (Q14160 857-960): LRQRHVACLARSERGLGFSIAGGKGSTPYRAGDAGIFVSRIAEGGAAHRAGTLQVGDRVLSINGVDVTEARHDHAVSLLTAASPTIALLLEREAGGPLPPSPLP
# Sequence of Inadl_8, Q8NI35 (Q8NI35 1425-1530): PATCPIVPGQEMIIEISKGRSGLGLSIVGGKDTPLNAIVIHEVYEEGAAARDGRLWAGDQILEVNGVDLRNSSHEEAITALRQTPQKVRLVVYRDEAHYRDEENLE
# Sequence of DLG4_3, P78352 (P78352 306-403): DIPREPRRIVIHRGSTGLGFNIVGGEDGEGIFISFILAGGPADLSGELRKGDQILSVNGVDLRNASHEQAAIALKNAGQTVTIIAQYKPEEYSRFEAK
# Sequence of GRIP2_4, Q9C0E4 (Q9C0E4 446-548): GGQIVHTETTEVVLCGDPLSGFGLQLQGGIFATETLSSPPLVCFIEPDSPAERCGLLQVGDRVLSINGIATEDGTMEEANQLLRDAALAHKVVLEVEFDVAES
# Sequence of MAST2, Q6P0Q8 (Q6P0Q8 1099-1202): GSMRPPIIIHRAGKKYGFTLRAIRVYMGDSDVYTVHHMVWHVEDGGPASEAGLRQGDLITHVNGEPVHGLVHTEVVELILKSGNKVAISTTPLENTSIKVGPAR
# Sequence of FRMPD2_1, Q68DX3 (Q68DX3 770-861): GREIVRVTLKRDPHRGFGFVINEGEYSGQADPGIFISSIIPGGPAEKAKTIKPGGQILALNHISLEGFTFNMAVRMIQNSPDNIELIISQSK
# Sequence of GIPC2, Q8TF65 (Q8TF65 112-203): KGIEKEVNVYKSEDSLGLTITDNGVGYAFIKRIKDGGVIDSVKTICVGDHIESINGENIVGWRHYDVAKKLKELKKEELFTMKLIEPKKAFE
# Sequence of LIMK2, P53671 (P53671 143-248): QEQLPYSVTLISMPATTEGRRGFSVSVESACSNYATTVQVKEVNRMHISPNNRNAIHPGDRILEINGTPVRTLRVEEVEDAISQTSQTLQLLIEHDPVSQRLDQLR
binder,measurement,setting,value
"PYSESDDDWC [CACNA1A, O00555]",pKd,[1]; [28],below the threshold
same,pKd,[2]; [28],3.92
same,pKd,[3]; [28],5.3
same,pKd,[4]; [28],below the threshold
same,pKd,[5]; [28],below the threshold
same,pKd,[6]; [28],3.66
same,pKd,[7]; [28],below the threshold
same,pKd,[8]; [28],below the threshold
same,pKd,[9]; [28],below the threshold
same,pKd,[10]; [28],below the threshold
same,pKd,[11]; [28],below the threshold
same,pKd,[12]; [28],below the threshold
same,pKd,[13]; [28],3.48
same,pKd,[14]; [28],below the threshold
same,pKd,[15]; [28],below the threshold
same,pKd,[16]; [28],below the threshold
same,pKd,[17]; [28],below the threshold
same,pKd,[18]; [28],3.67
same,pKd,[19]; [28],below the threshold
same,pKd,[20]; [28],below the threshold
same,pKd,[21]; [28],below the threshold
same,pKd,[22]; [28],4.15
same,pKd,[23]; [28],below the threshold
same,pKd,[24]; [28],below the threshold
same,pKd,[25]; [28],below the threshold
same,pKd,[26]; [28],below the threshold
same,pKd,[27]; [28],below the threshold
"AQRARSPSDV [GPR12, P47775]",pKd,[1]; [28],below the threshold
same,pKd,[2]; [28],below the threshold
same,pKd,[3]; [28],4.71
same,pKd,[4]; [28],below the threshold
same,pKd,[5]; [28],below the threshold
same,pKd,[6]; [28],below the threshold
same,pKd,[7]; [28],below the threshold
same,pKd,[8]; [28],below the threshold
same,pKd,[9]; [28],below the threshold
same,pKd,[10]; [28],below the threshold
same,pKd,[11]; [28],below the threshold
same,pKd,[12]; [28],below the threshold
same,pKd,[13]; [28],below the threshold
same,pKd,[14]; [28],below the threshold
same,pKd,[15]; [28],below the threshold
same,pKd,[16]; [28],below the threshold
same,pKd,[17]; [28],below the threshold
same,pKd,[18]; [28],below the threshold
same,pKd,[19]; [28],4.6
same,pKd,[20]; [28],below the threshold
same,pKd,[21]; [28],4.14
same,pKd,[22]; [28],3.98
same,pKd,[23]; [28],below the threshold
same,pKd,[24]; [28],below the threshold
same,pKd,[25]; [28],below the threshold
same,pKd,[26]; [28],below the threshold
same,pKd,[27]; [28],below the threshold
"SSRTRRETQL [HPV16-E6_-2P, P03126]",pKd,[1]; [29],below the threshold
same,pKd,[2]; [29],below the threshold
same,pKd,[3]; [29],below the threshold
same,pKd,[4]; [29],below the threshold
same,pKd,[5]; [29],below the threshold
same,pKd,[6]; [29],below the threshold
same,pKd,[7]; [29],below the threshold
same,pKd,[8]; [29],3.79
same,pKd,[9]; [29],below the threshold
same,pKd,[10]; [29],below the threshold
same,pKd,[11]; [29],3.94
same,pKd,[12]; [29],below the threshold
same,pKd,[13]; [29],below the threshold
same,pKd,[14]; [29],below the threshold
same,pKd,[15]; [29],below the threshold
same,pKd,[16]; [29],below the threshold
same,pKd,[17]; [29],below the threshold
same,pKd,[18]; [29],below the threshold
same,pKd,[19]; [29],below the threshold
same,pKd,[20]; [29],below the threshold
same,pKd,[21]; [29],below the threshold
same,pKd,[22]; [29],3.92
same,pKd,[23]; [29],below the threshold
same,pKd,[24]; [29],below the threshold
same,pKd,[25]; [29],below the threshold
same,pKd,[26]; [29],below the threshold
same,pKd,[27]; [29],below the threshold
"QSGLYESEEL [MYOT, Q9UBF9]",pKd,[1]; [28],below the threshold
same,pKd,[2]; [28],below the threshold
same,pKd,[3]; [28],below the threshold
same,pKd,[4]; [28],below the threshold
same,pKd,[5]; [28],below the threshold
same,pKd,[6]; [28],below the threshold
same,pKd,[7]; [28],below the threshold
same,pKd,[8]; [28],4.88
same,pKd,[9]; [28],below the threshold
same,pKd,[10]; [28],below the threshold
same,pKd,[11]; [28],3.58
same,pKd,[12]; [28],below the threshold
same,pKd,[13]; [28],below the threshold
same,pKd,[14]; [28],below the threshold
same,pKd,[15]; [28],below the threshold
same,pKd,[16]; [28],below the threshold
same,pKd,[17]; [28],below the threshold
same,pKd,[18]; [28],below the threshold
same,pKd,[19]; [28],below the threshold
same,pKd,[20]; [28],below the threshold
same,pKd,[21]; [28],below the threshold
same,pKd,[22]; [28],4.21
same,pKd,[23]; [28],below the threshold
same,pKd,[24]; [28],below the threshold
same,pKd,[25]; [28],below the threshold
same,pKd,[26]; [28],below the threshold
same,pKd,[27]; [28],below the threshold
"KKMLQRRTLL [OR8G1, Q15617]",pKd,[1]; [28],below the threshold
same,pKd,[2]; [28],below the threshold
same,pKd,[3]; [28],below the threshold
same,pKd,[4]; [28],below the threshold
same,pKd,[5]; [28],below the threshold
same,pKd,[6]; [28],below the threshold
same,pKd,[7]; [28],below the threshold
same,pKd,[8]; [28],5.13
same,pKd,[9]; [28],below the threshold
same,pKd,[10]; [28],below the threshold
same,pKd,[11]; [28],below the threshold
same,pKd,[12]; [28],3.87
same,pKd,[13]; [28],below the threshold
same,pKd,[14]; [28],below the threshold
same,pKd,[15]; [28],below the threshold
same,pKd,[16]; [28],below the threshold
same,pKd,[17]; [28],below the threshold
same,pKd,[18]; [28],3.8
same,pKd,[19]; [28],3.55
same,pKd,[20]; [28],below the threshold
same,pKd,[21]; [28],3.52
same,pKd,[22]; [28],3.8
same,pKd,[23]; [28],below the threshold
same,pKd,[24]; [28],below the threshold
same,pKd,[25]; [28],4.64
same,pKd,[26]; [28],below the threshold
same,pKd,[27]; [28],below the threshold
